{
  "source": "paper PMC12784961",
  "about": "“Structure of Bacillus subtilis Ku-mediated DNA synaptic complex”",
  "key": {"bsKu core N32E": {"target": "T1, bsKu core N32E (Bacillus subtilis, UniProt O34859 18-244, N32E)", "T1 sequence": "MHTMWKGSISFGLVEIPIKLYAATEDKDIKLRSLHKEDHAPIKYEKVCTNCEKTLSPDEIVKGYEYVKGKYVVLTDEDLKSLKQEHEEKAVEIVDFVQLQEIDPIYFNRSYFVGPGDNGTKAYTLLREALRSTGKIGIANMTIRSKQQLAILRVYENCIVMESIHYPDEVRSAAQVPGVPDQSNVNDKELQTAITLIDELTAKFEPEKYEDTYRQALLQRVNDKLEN", "assay": "EMSA; no significant loss of binding; EMSA: 20 mM HEPES pH 7.5, 150 mM KCl, 1 mM DTT, 50 nM DNA, 30 min at 4°C, 15% native PAGE in 0.5x TBE, SYBR Gold; SEC: same buffer, protein:DNA 1:2, 1 h at 4°C, Superdex 75", "conditions": "protein: recombinant; tags: N-terminal 8xHis-MBP, cleaved; chain copies: 2; blunt"}, "bsKu core L30G": {"target": "T2, bsKu core L30G (Bacillus subtilis, UniProt O34859 18-244, L30G)", "T2 sequence": "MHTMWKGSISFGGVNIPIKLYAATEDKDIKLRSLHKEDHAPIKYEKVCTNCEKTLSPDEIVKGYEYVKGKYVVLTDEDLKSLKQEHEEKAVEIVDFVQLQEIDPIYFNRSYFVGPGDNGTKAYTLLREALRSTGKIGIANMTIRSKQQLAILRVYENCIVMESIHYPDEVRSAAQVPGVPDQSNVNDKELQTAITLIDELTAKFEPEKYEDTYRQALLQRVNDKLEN", "assay": "EMSA; no significant loss of binding; EMSA: 20 mM HEPES pH 7.5, 150 mM KCl, 1 mM DTT, 50 nM DNA, 30 min at 4°C, 15% native PAGE in 0.5x TBE, SYBR Gold; SEC: same buffer, protein:DNA 1:2, 1 h at 4°C, Superdex 75", "conditions": "protein: recombinant; tags: N-terminal 8xHis-MBP, cleaved; chain copies: 2; blunt"}},
  "data": [
    {"binder": "13-bp DNA (dsDNA) DNA 1: GTACCTGTAGAAG DNA 2: CTTCTACAGGTAC", "values": [
      {"measurement": "binding result", "setting": "bsKu core N32E", "value": "binds"},
      {"measurement": "binding result", "setting": "bsKu core L30G", "value": "binds"}
    ]}
  ]
}
